Assay: yeast display, Sf9 membrane polyspecificity reagent, FACS + sequencing; frameworks hold sequencing errors
Procedure, shortened: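 Genes from sorted yeast were amplified by colony PCR, read by MiSeq 2 × 250 sequencing and filtered on CDR length. These cells carried a synthetic nanobody library in Saccharomyces cerevisiae BJ5465 and were sorted by FACS into low and high (top ~1%) gates on anti-HA and streptavidin fluorescence. Polyreactivity is labelled according to the gate of origin.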
For “QVQLVESGGGLVQAGGSLRLSCAASGITFFIYAMGWYRQAPGKQRELFAAIRSGGSTNYADSVKGRFTISRDNAQNTVYLQMNSLKPEDTSVFYCAADVYGTVRRVGWYYVGEGYDYWGQGTQVTVSS”, the “polyreactivity (PSR sort gate)” value was “low polyreactivity”. In the case of “QVQLVESGGGLVQAGGSLRLSCAASGITFFVYAMGWYRQAPGKERELVAAITSGDSTSYADSVKGRFTISRDNAKNTVYLQMNSLKPEDTAVYYCAAEQVTIEDGVYFDFNSWGQGTQVTVSS”, the “polyreactivity (PSR sort gate)” value is reported as “low polyreactivity”. For “QVQLVESGGGLVQAGGSLRLSCAASGITFFVYDMGWYRQAPGKERELVAAITWSGDSTYYADSVKGRFTISRDNAKNTVYLQMNSLKPEDTAVYYCAAQFDVYYSRQPYDYNRSGYWGQGTQVTVSS”, the “polyreactivity (PSR sort gate)” value was “low polyreactivity”. With “QVQLVESGGGLVQAGGSLRLSCAASGITFGAYTMGWYRQAPGKERELVAAISRTGARTYYADSVKGRFTISRDNAKNTVYLQMNSLKPEDTAVYYCAAYRIGQYDYWGQGTQVTVSS” the “polyreactivity (PSR sort gate)” value was “high polyreactivity”. For “QVQLVESGGGLVQAGGSLRLSCAASGITFGDYAMGWDRQAPGKERELVAAISTSGVRTYYADSVKGRFTISRDNAKNTVYLQMNSLKPEDTAVYYCNARDYSGFQTGASAAFDYWGQGTQVTVSS”, the “polyreactivity (PSR sort gate)” value was “low polyreactivity”. With “QVQLVESGGGLVQAGGSLRLSCAASGITFGGNAMGWYRQAPGKERELVAAISSSGGSTYYADSVKGRFTISRDNAKNTVYLQMNSLKPEDTAVYYCAARNRYPLRFYYWGQGTQVTVSS” the “polyreactivity (PSR sort gate)” value was “high polyreactivity”. For “QVQLVESGGGLVQAGGSLRLSCAASGITFGGYAMGWYRQAPGKERELVASIRSGSSTNYADSVKGRFTISRDNAKNTVYLQMNSLKPEDTAVYYCAARNFRNRYGYWGQGTQVTVSS”, the “polyreactivity (PSR sort gate)” value was “high polyreactivity”. In the case of “QVQLVESGGGLVQAGGSLRLSCAASGITFGPYAMGWYRQAPGKERELVAAITWGGGSTYYADSVKGRFTISRDNAKNTVYLQMNSLKPEDTAVYYCNAEGSTTSRYLPYDYWGQGTQVTVSS”, the “polyreactivity (PSR sort gate)” value is reported as “low polyreactivity”. With “QVQLVESGGGLVQAGGSLRLSCAASGITFGRNTMGWYRQAPGKERELVAAIRSGGSTNYADSVKGRFSISRDNAKNTVYLLMNSLKPEDPAVYYWNAQPWVRFWPYDYWGQGTQVTVSS” the “polyreactivity (PSR sort gate)” value was “low polyreactivity”. In the case of “QVQLVESGGGLVQAGGSLRLSCAASGITFGSNAMGWYRQAPGKERELVAAINSGGTTTYADSVKGRFTISRDNAKNTVYLQMNSLKPEDTAVYYCAVSGGASYQFVGSPDTEHDYWGQGTQVTVSS”, the “polyreactivity (PSR sort gate)” value is reported as “low polyreactivity”. With “QVQLVESGGGLVQAGGSLRLSCAASGITFGTNAMGWYRQAPGKERELVAAISGGGGSTYYADSVKGRFTISRDNAKYTVYLQMTCLKPEDTAFYYCAARRFKRSSLSFYVGYYYWGQGTQVTVSS” the “polyreactivity (PSR sort gate)” value was “high polyreactivity”. With “QVQLVESGGGLVQAGGSLRLSCAASGITFGTYAMGWYRQAPGKERELDAAIDTSGDDTYYADSVKGRFTISRDNAKNTVYLQMNSLKPEDTAVYYCAADFPSAEVDYWGQGTQVTVSS” the “polyreactivity (PSR sort gate)” value was “low polyreactivity”. In the case of “QVQLVESGGGLVQAGGSLRLSCAASGITFGVYALGWSRQARGNERELVAAISVNGGSTYYADSVKGRYTISRDNAKNTVYLQMNSLKPEDTAVYYCAADVLYYIDDDSIIEYDYWGQGTQVTVSS”, the “polyreactivity (PSR sort gate)” value is reported as “low polyreactivity”. For “QVQLVESGGGLVQAGGSLRLSCAASGITFGVYAMGWYRQAPGKERELVAAISWSVGSTYYADSVKGRFTISRDNAKNTVYLQMNSLKPEDTAVYYCAAYYGVGFDYWGQGTQVTVSS”, the “polyreactivity (PSR sort gate)” value was “high polyreactivity”. For “QVQLVESGGGLVQAGGSLRLSCAASGITFGVYTMGWYRQAPGKEREFVAVISGRGGSTYYADSVKGRFTISRDNAKNTVYLQMNSLKPEDTAVYYCAADYYYIVDYWGQGTQVTVSS”, the “polyreactivity (PSR sort gate)” value was “high polyreactivity”. For “QVQLVESGGGLVQAGGSLRLSCAASGITFGWYAMGWYRQAPGKERELVAAISWSGGTTYYADSVKGRFTISRDNAKNTVYLQMNSLKPEDTAVYYCAATWYYPTVYAGNYWGQGTQVTVSS”, the “polyreactivity (PSR sort gate)” value was “high polyreactivity”. For “QVQLVESGGGLVQAGGSLRLSCAASGITFGYYAMGWSRQAPGKERELVAAIRSSGGSTYYADSVKGRFTISRDNAKNNVYLQMNSLKPEDTAVYYCNARYRKSSRPGYEPYERYYWGQGTQVTVSS”, the “polyreactivity (PSR sort gate)” value was “high polyreactivity”. In the case of “QVQLVESGGGLVQAGGSLRLSCAASGITFGYYARGGYRQAPGNERELVAAISRNGGSTYYADSVKGRFTISRDNAKNTVYLQMNSLKPEDTAVYYCNARGNQAVIGYEYWGQGTQVTVSS”, the “polyreactivity (PSR sort gate)” value is reported as “high polyreactivity”. In the case of “QVQLVESGGGLVQAGGSLRLSCAASGITFHDNAMGWYRQAPGKERELVAVITRRGGRTYYADSVKGRFTISRDNAKNTVYLQMNSLKPEDTAVYYCAAYYDYTHRFYYWGQGTQVTVSS”, the “polyreactivity (PSR sort gate)” value is reported as “high polyreactivity”. In the case of “QVQLVESGGGLVQAGGSLRLSCAASGITFHGYAMGWYRQAPGKERELVAAISDSGSSTYYADSVKGRFTISRDNAKNTVYLQMNSLKPEDTAVYYCAAVSGFYDQYDYWGQGTQVTVSS”, the “polyreactivity (PSR sort gate)” value is reported as “low polyreactivity”. In the case of “QVQLVESGGGLVQAGGSLRLSCAASGITFHRNTMGWYRQAPGTETELVDSITSGGITYYADSVKGSFTISRDNEKNTVYLQMNSLKPEDTAVYYCAAEGYWTYWVARSDIPYFYWGQGSQVTVSS”, the “polyreactivity (PSR sort gate)” value is reported as “high polyreactivity”. In the case of “QVQLVESGGGLVQAGGSLRLSCAASGITFHVNAMGWYRQAPGKERELVARITTSGGSTSYADSVKGRFTISRDNAKNTVYLQMNSLKPEDTAVYYCAADLARYYSEYDYWGQGTQVTVSS”, the “polyreactivity (PSR sort gate)” value is reported as “low polyreactivity”. For “QVQLVESGGGLVQAGGSLRLSCAASGITFIAYTMGWYRQAPGKERELVAGISRNGGRTYYADSVKGRFTISRDNAKNTVYLQMNSLKPEDTAVYYCNKVVSTYSSIKYDYWGQGTQVTVSS”, the “polyreactivity (PSR sort gate)” value was “high polyreactivity”. For “QVQLVESGGGLVQAGGSLRLSCAASGITFISYVKGWYRQAPGKEREVVAAISKRGGSTYYADSVKGRFTISRDNAKNTVYFKINSLKAEDTAVYYCAAKTIPWSVGYDYWGQGTQVTVSS”, the “polyreactivity (PSR sort gate)” value was “high polyreactivity”. With “QVQLVESGGGLVQAGGSLRLSCAASGITFIVNAMGWYRQAPGKERELVARITTSGGSTSYADSVKGRFTISRDNAKYTVYLQMYSLKPEDSAVYYCAADRGGYYSEYDYWGQGTQVTVSS” the “polyreactivity (PSR sort gate)” value was “low polyreactivity”. For “QVQLVESGGGLVQAGGSLRLSCAASGITFIYYAMGWYRQAPGKERELVAAISTGGSTYYADSVKGRCTISRDNAKNTVYLQRKSLKPEDTAVYFWNALRKSLRGGDYWGQGTQVTVSS”, the “polyreactivity (PSR sort gate)” value was “high polyreactivity”. For “QVQLVESGGGLVQAGGSLRLSCAASGITFKAYAMGWYRQAPGKERELVAAINTSGARTYYADSVKGRFTISRDNAKNTVYLQMNSLKTEDTAVYYCNARLHQQEGDDWGQGTQVTVSS”, the “polyreactivity (PSR sort gate)” value was “low polyreactivity”. In the case of “QVQLVESGGGLVQAGGSLRLSCAASGITFKRYAMGWYRQAPGKERELVAAITISAGSTYYADSVKGRFTISRDNAKNNVYLQMNSLKPEDTAVYYCAAESYGSWYYYWGQGTQVTVSS”, the “polyreactivity (PSR sort gate)” value is reported as “high polyreactivity”. For “QVQLVESGGGLVQAGGSLRLSCAASGITFKRYTMGWYRQAPGKERELVADITWSGGSTYADSVKGRFTISRDNAKNTVYLQMNSLKPEDTAVYYCAAEWQTWYGVEYDYWGQGTQVTVSS”, the “polyreactivity (PSR sort gate)” value was “high polyreactivity”. In the case of “QVQLVESGGGLVQAGGSLRLSCAASGITFKSNAMGWYRQAPGKERELVAAISRRASSTYYADSVKGRFTISRDNAKNTVYLQMNSLKPEDTAVYYCNAVLPVYRTNMDYWGQGTQVTVST”, the “polyreactivity (PSR sort gate)” value is reported as “high polyreactivity”. In the case of “QVQLVESGGGLVQAGGSLRLSCAASGITFKSYAMGWYRKAPGKERELVAAITRSGGSTYYADSVKGRLTISRDNAKNTVYLQMNSLKPEDTAVYYCAARYFIAYPQYTYDYWGQGTQVTVSS”, the “polyreactivity (PSR sort gate)” value is reported as “high polyreactivity”. For “QVQLVESGGGLVQAGGSLRLSCAASGITFKTYAMGWYRQAPGKERELVATINRGSRTNYADSVKGRFTISRDNAKNTVYLQMNSLKPEDTAVYYCAAEYVTYISSEMDYWGQGTQVTVSS”, the “polyreactivity (PSR sort gate)” value was “low polyreactivity”. With “QVQLVESGGGLVQAGGSLRLSCAASGITFKTYTMGWYRQAPGKERELVAAITRSGAGTYYADSVKGRFTISRDNAKNTVDLQMNSLKPEDTAVYYCAARVRWGYRYGYWGQGTQVTVSS” the “polyreactivity (PSR sort gate)” value was “high polyreactivity”. In the case of “QVQLVESGGGLVQAGGSLRLSCAASGITFKVYAMGWYRQAPRKEREFVAAITYSGGRTYYADSVKGRFTISRDNAKNTVYLQMNSLQPEDTAVYYCAKEYGIYTDTPYYYWGQGTQVTVSS”, the “polyreactivity (PSR sort gate)” value is reported as “low polyreactivity”. With “QVQLVESGGGLVQAGGSLRLSCAASGITFKWYAMGWYRQAPGKERELVAAISWSTGSTYYADSVKGRFTISRDNAKNTVYLQMNSLKPEDTSVYYCAARVKRPQTGYDRRYGYWGQGTQVTVSS” the “polyreactivity (PSR sort gate)” value was “high polyreactivity”. For “QVQLVESGGGLVQAGGSLRLSCAASGITFKYYAMGWYRQAPGKERELVAAINWSGDRTYYADSVKGRFTISRDNAKNTVYLQMNSLKPEDTAVYYCAATAWPGRYWRQEVDYWGQGTQVTVSS”, the “polyreactivity (PSR sort gate)” value was “high polyreactivity”. For “QVQLVESGGGLVQAGGSLRLSCAASGITFLDYAMGWYRQAPGKERELVADISTSGGSTYYADSVKGRFTISRDNAKNTVYLQMNSLKPEDTAVYYCAADTFDFWWSLGSMDYWGQGTQVTVSS”, the “polyreactivity (PSR sort gate)” value was “high polyreactivity”. For “QVQLVESGGGLVQAGGSLRLSCAASGITFLFYAMGWYIPAPGKEREYVAAISTRGGRTYYADSVKGRFTISRDNAKNTVYLQMNSLKPEDTAVYYCAADFYYRTVATVTSVARYDYWGQGTQVTVSS”, the “polyreactivity (PSR sort gate)” value was “high polyreactivity”. In the case of “QVQLVESGGGLVQAGGSLRLSCAASGITFLFYARGWYRKAPGKERELVAAISSGDNTYYADSVKGRFTISRDNGKNTVYLQMKSLKPDDTAVYYCAAEKYGYDYWGQGTQVTVSS”, the “polyreactivity (PSR sort gate)” value is reported as “low polyreactivity”. In the case of “QVQLVESGGGLVQAGGSLRLSCAASGITFLGYVMGWYRQAPGKEREFVADITESGGRTYYADSVKGRFTISRDNAKNTVYLQMNSLKPEDTAVYYCAAELSYWGYYYSFDYWGQGTQVTVSS”, the “polyreactivity (PSR sort gate)” value is reported as “low polyreactivity”.

Reference: the nanobody polyreactivity screen of Harvey et al. (2022)
